Experimental data reported in patent US9260500B2, “Peptide and use thereof” (Takeda Pharmaceutical Company Limited, priority 2009, dated 2016).
Starred links: 1 amine or outer side, 2 acyl side, 3 side chain; linkers in the order of their positions; H or OH if unused. Non-standard residues stand in square brackets, D forms with d. No end group written: not given here. *: point of attachment. Azetidine3carboxylic = O=C(C1CN([*:1])C1)[*:2]; Tyr(2-F) = N[C@@H](Cc1ccc(O)cc1F)C(=O)O; β‑HOAla = beta-homoalanine, D or L form; tBuAla = CC(C)(C)C[C@H](N)C(=O)O; 4Pal = N[C@@H](Cc1ccncc1)C(=O)O; Cha = N[C@@H](CC1CCCCC1)C(=O)O; Suc = O=C(CCC(=O)[*:2])[*:1]; Aipe = 3-aminobutanoic acid; Isobutyryl = CC(C)C(=O)*; Iva = CC[C@](C)(N)C(=O)O; Abu = CC[C@H](N)C(=O)O; Aib = CC(C)(N)C(=O)O; Ahx = NCCCCCC(=O)O

Legend:
[1] = target: T1, human Y2 receptor (Homo sapiens, UniProt P49146); assay: Receptor Binding Assay (RBA) for Human Y2, [125I]-PYY displacement on hY2R/CHO membrane fraction; conditions: IC50 of test compound/IC50 of PYY(3-36) (PYY(3-36) taken as 1)
T1 construct: expressed in transfected cells; membrane fraction
T1 sequence (P49146 1-381): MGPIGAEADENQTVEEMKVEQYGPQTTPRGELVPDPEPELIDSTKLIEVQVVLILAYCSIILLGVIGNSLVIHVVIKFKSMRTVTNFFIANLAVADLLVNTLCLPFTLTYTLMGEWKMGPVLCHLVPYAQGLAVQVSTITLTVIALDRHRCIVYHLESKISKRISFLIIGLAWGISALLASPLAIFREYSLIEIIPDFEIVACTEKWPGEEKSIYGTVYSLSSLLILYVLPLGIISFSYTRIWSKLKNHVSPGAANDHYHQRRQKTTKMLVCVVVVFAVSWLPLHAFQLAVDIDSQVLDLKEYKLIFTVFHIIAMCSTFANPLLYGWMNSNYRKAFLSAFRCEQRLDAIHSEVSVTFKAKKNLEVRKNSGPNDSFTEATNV
Method: (1) Construction of Expression Plasmid for the Human Y2 Receptor (Y2R) Gene
PCR was performed by a reaction using Pfu DNA polymerase ([…]), with a human brain cDNA (PT3158-1, Clontech) as the template, wherein synthetic DNAs with the following sequences were used as a combination of 5′ and 3′ primers, whereby the human Y2R gene was cloned. Primer 1 was prepared on the basis of base sequence information on the human Y2R gene (Refseq ID No. NM_000910) with the addition of Kozak's consensus sequence. Primer 2 was prepared on the basis of base sequence information on the human Y2R gene.
The PCR product obtained was cloned into pCR4-Blunt-TOPO (Invitrogen), and the plasmid was extracted according to a conventional method (QIAwell 8 Plus, QIAGEN). After confirming the base sequence, the human Y2R gene was re-cloned by a PCR reaction with the plasmid DNA as the template, using Primer 1 as the 5′ primer and Primer 2 as the 3′ primer. The PCR was performed using the Pyrobest DNA polymerase (TaKaRa). The PCR product obtained was re-cloned into pCR-Blunt II-TOPO (Invitrogen), and the plasmid was extracted according to a conventional method (QIAGEN). An Xho I restriction enzyme digestion site and an Spe I restriction enzyme digestion site are present in the cloning site of the pCR-Blunt II-TOPO; a plasmid clone was selected wherein the human Y2R gene was inserted in the orientation such that the Xho I restriction enzyme digestion site was positioned upstream of Primer 1, and the Spe I restriction enzyme digestion site was positioned downstream of Primer 2. After confirming the base sequence, the plasmid clone was digested with the restriction enzymes Xho I and Spe I to yield a DNA fragment. The DNA fragment was inserted into the animal cell expression vector pAKKO-111H (the same plasmid as pAKKO-1.111H described in Biochem. Biophys. Acta, Hinuma, S. et al., 1219, 251-259 (1994)), which was enzymatically digested with Sal I and Spe I, to yield the expression plasmid pAK-hY2R (pAKKO-111H/Y2R).
(2) Test Method: Receptor Binding Assay (RBA) for Human Y2
A human NPY2R (hY2R) stable expression cell line was acquired by transducing the animal cell expression plasmid pAK-hY2R into CHO/dhfr-cells using the CellPhect Transfection kit (Amersham Pharmacia Biotech Co.). First, 240 μl of Buffer A (attached to the CellPhect Transfection kit) was added to 9.6 μg of the plasmid DNA dissolved in 240 μl of distilled water; this mixture was stirred and allowed to stand for 10 minutes, after which 480 μL of Buffer B (attached to the CellPhect Transfection kit) was added, and the mixture was vigorously stirred to form a liposome containing the DNA. 2.5×10^5 or 4×10^5 CHO/dhfr− cells (obtained from ATCC) were seeded to 60 mm petri dishes, and cultured in Ham's F-12 medium (Sigma Co.) containing 10% fetal bovine serum (BioWest Co.) at 37° C. in 5% gaseous carbon dioxide for 1 day, after which 480 μL of the liposome was added drop by drop on to the cells in each petri dish. This was cultured at 37° C. in 5% gaseous carbon dioxide for 6 hours, after which the cells were twice washed with serum-free Ham's F-12 medium; 3 mL of 15% glycerol was added onto the cells in the petri dish and treated for 2 minutes. This was again washed 3 times with serum-free Ham's F-12 medium, after which the cells were cultured in Ham's F-12 medium containing 10% fetal bovine serum at 37° C. in 5% gaseous carbon dioxide. The cells were dispersed by trypsinization and recovered from the petri dishes, and seeded to a 6-well plate at 2.5×10^4 or 4×10^4 cells per well; cultivation was begun in Dulbecco's modified Eagle medium <DMEM> medium (Sigma Co.) containing dialyzed 10% fetal bovine serum (Invitrogen Co.) at 37° C. in 5% gaseous carbon dioxide. Since plasmid-introduced transformant CHO cells grow in the medium, whereas cells without plasmid introduction die gradually, about 20 colonies of transformed CHO cell that had grown 9-13 days after the start of the cultivation were isolated. […]

[2] = target: T1, human Y2 receptor; assay: Human Y2 Receptor G Protein Binding Assay (GBA), [35S]GTPγS; assay type: biochemical; conditions: EC50 of test compound/EC50 of PYY(3-36) (PYY3-36 taken as 1), hY2R/CHO membrane fraction
Method: (3) Test Method: Human Y2 Receptor G Protein Binding Assay (GBA)
The agonist activity of the compound of the present invention against the human Y2 receptor was measured by the method described below.
2 μL of the test compound, serially diluted with DMSO from 100 μM to 1 nM, was dispensed to a 96-well plate, and 100 μL of the membrane fraction, previously diluted with an assay buffer (50 mM Tris, 5 mM MgCl2, 150 mM NaCl, […], 0.03% NaN3, 0.1% BSA, pH 7.4) to 1 μg protein/mL, was dispensed thereto, subsequently, 100 μL of a [^35S]GTPγS (NEG030H, PerkinElmer, previously diluted with the assay buffer to 1 nM) was added, and they were mixed by pipetting. After incubation at room temperature for 120 minutes, the mixture was filtered through the cell harvester FilterMate (PerkinElmer) using the UniFilter-96 GF/C (PerkinElmer), and the filter was washed 3 times with a filtering buffer (50 mM Tris, 5 mM MgCl2, 150 mM NaCl, 0.03% NaN3, 0.05% CHAPS, pH 7.4). Thereafter, UniFilter-96 GF/C was dried in a mechanical drier for 1 hour, 15 μl of the liquid scintillator MicroScint O (PerkinElmer) was added to each well, and a measurement was taken using TopCount (PerkinElmer). The data obtained were analyzed using Prism to calculate the EC50 value. The agonist activity of the test compound was expressed as a ratio to the EC50 value of PYY3-36 taken as 1 (EC50 Ratio: EC50 of test compound/EC50 of PYY(3-36)). The results are shown in the GBA column in Table 5 (Table 5-1-Table 5-10).

Row | RBA IC50 Ratio [1] | GBA EC50 Ratio [2] | Substance
1 | 1.2 | 0.89 | Ac-[Phe22, D-Pro24, Pya(4)26, Cha27,36, Aib28,31, Lys30]-PYY(22-36) (Ac-FS[dP]R[4Pal][Cha][Aib]NK[Aib]TRQR[Cha]-NH2; SMILES CC(=O)N[C@@H](Cc1ccccc1)C(=O)N[C@@H](CO)C(=O)N1CCC[C@@H]1C(=O)N[C@@H](CCCNC(=N)N)C(=O)N[C@@H](Cc1ccncc1)C(=O)N[C@@H](CC1CCCCC1)C(=O)NC(C)(C)C(=O)N[C@@H](CC(N)=O)C(=O)N[C@@H](CCCCN)C(=O)NC(C)(C)C(=O)N[C@H](C(=O)N[C@@H](CCCNC(=N)N)C(=O)N[C@@H](CCC(N)=O)C(=O)N[C@@H](CCCNC(=N)N)C(=O)N[C@@H](CC1CCCCC1)C(N)=O)[C@@H](C)O) [compound No. 275]
2 | 0.85 | 1.9 | Ac-[β-HOAla24, Pya(4)26, Cha27,36, Aib28,31, Lys30]-PYY(23-36) [compound No. 245] (Ac-S[β‑HOAla]R[4Pal][Cha][Aib]NK[Aib]TRQR[Cha]-NH2; also: β-HOAla at position 2: D or L form not settled)
3 | 5.4 | 2.5 | [Lys(Ac)23, D-Pro24, Cha27,28,36, Aib31]-PYY(23-36) (K(Ac)[dP]RH[Cha][Cha]NL[Aib]TRQR[Cha]-NH2; N-terminus assumed; SMILES CC(=O)NCCCC[C@H](N)C(=O)N1CCC[C@@H]1C(=O)N[C@@H](CCCNC(=N)N)C(=O)N[C@@H](Cc1c[nH]cn1)C(=O)N[C@@H](CC1CCCCC1)C(=O)N[C@@H](CC1CCCCC1)C(=O)N[C@@H](CC(N)=O)C(=O)N[C@@H](CC(C)C)C(=O)NC(C)(C)C(=O)N[C@H](C(=O)N[C@@H](CCCNC(=N)N)C(=O)N[C@@H](CCC(N)=O)C(=O)N[C@@H](CCCNC(=N)N)C(=O)N[C@@H](CC1CCCCC1)C(N)=O)[C@@H](C)O) [compound No. 163]
4 | 5.2 | 4.2 | Ac-[D-Pro24, Iva26, Cha27,28,36, Aib31]-PYY(23-36) (Ac-S[dP]R[Iva][Cha][Cha]NL[Aib]TRQR[Cha]-NH2; SMILES CC[C@](C)(NC(=O)[C@H](CCCNC(=N)N)NC(=O)[C@H]1CCCN1C(=O)[C@H](CO)NC(C)=O)C(=O)N[C@@H](CC1CCCCC1)C(=O)N[C@@H](CC1CCCCC1)C(=O)N[C@@H](CC(N)=O)C(=O)N[C@@H](CC(C)C)C(=O)NC(C)(C)C(=O)N[C@H](C(=O)N[C@@H](CCCNC(=N)N)C(=O)N[C@@H](CCC(N)=O)C(=O)N[C@@H](CCCNC(=N)N)C(=O)N[C@@H](CC1CCCCC1)C(N)=O)[C@@H](C)O) [compound No. 176]

More lines, now with the values behind:

Row | Substance | RBA IC50 Ratio [1] | GBA EC50 Ratio [2]
5 | Ac-[Aipe24, Pya(4)26, Cha27,36, Aib28,31, Lys30]-PYY(23-36) (Ac-S[Aipe]R[4Pal][Cha][Aib]NK[Aib]TRQR[Cha]-NH2) [compound No. 243] | 1.3 | 2
6 | 3-Carboxypropionyl-[Acp22, D-Pro24, Cha27,36, Leu(Me)28, Lys30, Aib31]-PYY(22-36) (Suc-[Ahx]S[dP]RH[Cha][tBuAla]NK[Aib]TRQR[Cha]-NH2; SMILES C[C@@H](O)[C@H](NC(=O)C(C)(C)NC(=O)[C@H](CCCCN)NC(=O)[C@H](CC(N)=O)NC(=O)[C@H](CC(C)(C)C)NC(=O)[C@H](CC1CCCCC1)NC(=O)[C@H](Cc1c[nH]cn1)NC(=O)[C@H](CCCNC(=N)N)NC(=O)[C@H]1CCCN1C(=O)[C@H](CO)NC(=O)CCCCCNC(=O)CCC(=O)O)C(=O)N[C@@H](CCCNC(=N)N)C(=O)N[C@@H](CCC(N)=O)C(=O)N[C@@H](CCCNC(=N)N)C(=O)N[C@@H](CC1CCCCC1)C(N)=O) [compound No. 185] | 1.7 | 1.2
7 | Ac-[D-Pro24, Iva25, Cha27,28,36, Aib31]-PYY(23-36) (Ac-S[dP][Iva]H[Cha][Cha]NL[Aib]TRQR[Cha]-NH2; SMILES CC[C@](C)(NC(=O)[C@H]1CCCN1C(=O)[C@H](CO)NC(C)=O)C(=O)N[C@@H](Cc1c[nH]cn1)C(=O)N[C@@H](CC1CCCCC1)C(=O)N[C@@H](CC1CCCCC1)C(=O)N[C@@H](CC(N)=O)C(=O)N[C@@H](CC(C)C)C(=O)NC(C)(C)C(=O)N[C@H](C(=O)N[C@@H](CCCNC(=N)N)C(=O)N[C@@H](CCC(N)=O)C(=O)N[C@@H](CCCNC(=N)N)C(=O)N[C@@H](CC1CCCCC1)C(N)=O)[C@@H](C)O) [compound No. 177] | 4.5 | 3.7
8 | Isobutanoyl-[Abu26, Cha27,28, Aib31, Tyr(2F)36]-PYY(25-36) (Isobutyryl-R[Abu][Cha][Cha]NL[Aib]TRQR[Tyr(2-F)]-NH2; SMILES CC[C@H](NC(=O)[C@H](CCCNC(=N)N)NC(=O)C(C)C)C(=O)N[C@@H](CC1CCCCC1)C(=O)N[C@@H](CC1CCCCC1)C(=O)N[C@@H](CC(N)=O)C(=O)N[C@@H](CC(C)C)C(=O)NC(C)(C)C(=O)N[C@H](C(=O)N[C@@H](CCCNC(=N)N)C(=O)N[C@@H](CCC(N)=O)C(=O)N[C@@H](CCCNC(=N)N)C(=O)N[C@@H](Cc1ccc(O)cc1F)C(N)=O)[C@@H](C)O) [compound No. 86] | 19 | 11
9 | Ac-[Aze(3)24, Cha27,28,36, Aib31]-PYY(23-36) (Ac-S[Azetidine3carboxylic]RH[Cha][Cha]NL[Aib]TRQR[Cha]-NH2; SMILES CC(=O)N[C@@H](CO)C(=O)N1CC(C(=O)N[C@@H](CCCNC(=N)N)C(=O)N[C@@H](Cc2c[nH]cn2)C(=O)N[C@@H](CC2CCCCC2)C(=O)N[C@@H](CC2CCCCC2)C(=O)N[C@@H](CC(N)=O)C(=O)N[C@@H](CC(C)C)C(=O)NC(C)(C)C(=O)N[C@H](C(=O)N[C@@H](CCCNC(=N)N)C(=O)N[C@@H](CCC(N)=O)C(=O)N[C@@H](CCCNC(=N)N)C(=O)N[C@@H](CC2CCCCC2)C(N)=O)[C@@H](C)O)C1) [compound No. 113] | 11 | 4.7
